Data on one substance can be found in US20060036083.

The series has as its system ADP-ribosylated HNP-1.

Sequence of ADP-ribosylated HNP-1 (chain, as listed by the source): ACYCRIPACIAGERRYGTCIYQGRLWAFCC

Regarding “recombinant human ADP-ribosylarginine hydrolase”, the “Release of ADP-ribose from ADP-ribosylated HNP-1 (MALDI-MS)” value is recorded as “released a molecule of 3,444 daltons consistent with HNP-1 (calculated 3, 443 daltons)”.
